Data published in the NTF2 design screens of Basanta et al. (2020).

test: protease stability score; higher = more stable; yeast display proteolysis, trypsin and chymotrypsin;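 also: relative to predicted unfolded state with 0 unfolded-like and 1 meaning tenfold more protease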

Q: For “DEDEEVIRRMLETELNAVKTGDWRKFYELADPSVLVDIDGKKIHGRELWSRHLMHLRIDEIHIRIDHMDVVNGVAELHIKMEFRGTIDGVHRKQSTEVILFIKKIDGQWVIQKIEVR”, which protease stability score is on record?
A: 1.27

Q: Which protease stability score does the source give for “SEEEKRMRDVLRRMEEALKTGDWKFLKDLLDPHTRTVINGRDRHGREFVLEVFSRFGADHSDIEDEDFQGNFVILHLEMEIGDKRIRLRIYIEKINGRWIWRHVIFD” here?
A: 2.85

Q: With “SEDSEHAVEYMRLLRESMHTGDEKSWEDMMDPNMRILINGKDLIGWEEFSEFLRRFDHWEIRHVEIKDTKLINGRIELKGRMDIRLTINGKETSHVRNVHILSLKVNGRWILKSIEIE” as the sequence, how does the protease stability score read?
A: 1.34

Q: For “NEREKWAVDMFEILVHLFFTGDEEIMAHMADPNTQIHYGEYHHHGRDHLRELLREEFKRVDHVEWRLDTVRIIDGRVLIHSHVIHKVGEKTIKREYVIILLKVNGQWHIKHIEIR”, which protease stability score is on record?
A: 1.46

Q: For “DEEERVRDEIERLIEESLRTGDWRHLSELFDPNVRMEVGDKDIIGRERVHQAIHDFWKSFGADHRHLHDIEEINGVVIMHMRYRVGNKTVHFHVIMIKINGRWFLHSVHIHID”, which protease stability score is on record?
A: 1.11

Q: For “TEEEKSLKEVLERYIKAIRTGDWEILRHLADPRTRMDINGRDIHGMEEITNELVEQIRRFDHIDFKFHHIEVYGDKADVHGTLVIKINGVEIRHSTKEFWYKVNGRWILHHSEIH”, which protease stability score is on record?
A: 1.21

Q: For “SEDDEYSELFVKTWFEILRTGDEEKIRRMLDPDARSTINGKDLHGRERIEEHLHELFLRLGLSNVKVHLHDYRFIGDKLHLHGKLTINGQEFDTKVDAWKFNGRWFMHQIHLR”, which protease stability score is on record?
A: 1.39

Q: For “DETTETLLRISESNIRNWETGDFDTIKQLLDPHVRMEQGDKTNHGRERVAKSWTEFLRELRLKTVHLHEVDVQGEKALSHVILFVKIGDKKIEVEAHLLVVVIDGKVSSIHITIK”, which protease stability score is on record?
A: -0.305

Q: For “SEEEEFSHNLLNFMLHVIHTGDFDLLLDLMDPDTRVDINGKRHHGRDAMRIWVTLLGIERVETDVHHISIYGDKARIDGRVHYNGKTQRFEIHSRKIDGKWLNTEIKWD”, which protease stability score is on record?
A: 1.09

Q: For “DSEEKWDREFVKDFVHNEKTGDEERLKELMDPHAILLIDINGREIRHHGREAMTEEVDRFLKHAGVDHMDIHDVKIQGDKVRVDIRIEIGDKRQKSHIIIEKINGQWRVTQIHIHVE”, which protease stability score is on record?
A: 0.989

Q: With “DEEEHYLREYLRIVDEELHTGDEKLLAKLLDPEVRVDFNGVVNIGWETVRRHVHHIWMIFRDSKIHDVKVQGDKMIADGRVDVEIIVNGRTHRLELDTNLIFRKVNGRWVMQEIKIG” as the sequence, how does the protease stability score read?
A: 2.25

Q: Which protease stability score does the source give for “SESEDLLETLERVIRRVDETGDERDFHEMLDPDARIIIGDKIHIGREASELWFKRVDHIHHRHIHQIRVIGNKMHIDIEVDGKIGDWRFRTRVELVLVKVNGKWMVHHININ” here?
A: 1.17

Q: For “SEDIEIVKQVLEFHIRSEITGDEDTMTELLDPHTRITIGDKHIHGREEAVRILLEIANHMRIHRFHVHQVHIYDGRLEIDMRIDREYDGKRRHQEVWWIFIKVNGRWYIHSIEIR”, which protease stability score is on record?
A: 1.67

Q: Which protease stability score does the source give for “SEEDELAMEFMREQDRNQETGDWRRLSELADPNTRVEVNGREIHGMELWIKLLINKLREHGMEVRLHVERVEFYDGVADLDLRLYIHINGKDIHFHTQIIILKINGKWILKYIIIR” here?
A: 1.25

Q: Which protease stability score does the source give for “SRIEKLIEHLVHLWLEIWRTGDEHSFTRLLDPHVRLRIGDKHFIGREDVVKFLRDHEKEWREDDVEIRDIRTQGDFLEVEITITGRFNGRDITREFRITMIVVDGRVKEIRISYE” here?
A: 2.05

Q: With “TELEEIFRLALEYLDKIWKTGDEHTLKRMFDPTTLLVVDGKRQHGMEFWREFLERYDHFHHLEVDDYHDVNGVLRLHGVIDGTVNGRRHEIHVHIVASKVNGKWRLKSVIFH” as the sequence, how does the protease stability score read?
A: 1.5

Q: For “DEDEEMAHWAMEVLTKLIRTGDEDTILDMIDPHARIVYGDKTHHGREHFEKIIHELGVKVFEVHEIENQGEKVTIHGRQHVNGRTYDVKLFVQKVNGRWYIKRVHIK”, which protease stability score is on record?
A: 1.42

Q: For “DEEERAAEEFLRWISKNSRTGDEESFNHLADPNTRVIIGDKVLHGREEWKKFLEEIRIEEIELKDFRIFDGKIRLDVIHTGKVNGRRHEVQVQMIVIKVNGRWIMHSVKFD”, which protease stability score is on record?
A: 1.09

Q: For “SEHEEELHKFFEEFLKAVETGDWRRLMELIDPHARLHIHQGEKEDHDHGRKFLKEFLKRYPNLRIQVTSLRIDVIDGVAIIILRGHDDVNGVELHSTIRIVVTKVNGQWRVEEVEIRIR”, which protease stability score is on record?
A: 1.38

Q: Which protease stability score does the source give for “DEDERTFRTAITLLLRDMHTGDEESFEKMVDPRTRLRYNGKELHGRDAYEFSLEELGVKHIEFKDMRVQGDFIWLEGTVNVNGKKIKLILIILKVDGKWIIHSIHLH” here?
A: 0.799

Q: For “SELDENVKRITDIFIHAILTGDEHKIRKLLDPHVRTVVDGVEYIGREWFAEWVKHMRIDDHRIKTIEIRNQGDYAHVHIHGRTLGEYDGKHSTVNMFIHMHFVKFDGKWFVHELNVHII”, which protease stability score is on record?
A: 2.06

Q: For “DEEDEMAISLAKLFVDDLMTGNWRSLQHLLDPHTRLHVGDKEHHGRQKSVEWLKDLVRRIDHLEMDIHRLDVQGEKAESETESNVNIGDKEVRYHMELIILVVNGRVKEIEIRLG”, which protease stability score is on record?
A: 0.941

Q: With “SEDEENIKRHLEIWFTALKTGDEDTSRRMIDPNARFQVGDKHEHGMDSLVRELLREWKERGIELKSIRTTEIHIQGDKIFLNSRRDVLVNGVRIILETEIRFLKVDGRWLITEVSER” as the sequence, how does the protease stability score read?
A: 1.22

Q: With “SDRRELLERLAELFLHWWLTGDWKAISDNADPNVRLDIQQGDKHIHDIGRERTEEVLRKIFERFKNLKIEIKRFDMQGDKLHVDSRVTFDGVEFNMEIHNLVVDGRIREIYVHLH” as the sequence, how does the protease stability score read?
A: 1.54

Q: With “SEREKHSKELNEHMIQLFETGDEDLLIRMADPHVRVIQGDKEYHGRHWYEKIFHDFVKQAQNARFEIHDVKIQGEKLIIHGKMEWNGKRHEVEWYFDIVDGRIKEEEIRIR” as the sequence, how does the protease stability score read?
A: 0.943

Q: Which protease stability score does the source give for “DEEDEILRHFLEEFWRAIRTGDEDTLMHLMDPHAKEEVNGRELHGRHEISRHLVKLGIKHMHIDDSKRYGDKITLHITVEVNGRKIDLEVYAIKVDGRWKIEHSQIK” here?
A: 1.05

Q: Which protease stability score does the source give for “SEEEKRWEDWARLMLNWLRTGDEEKISNLMDPNAKSETLIDGRRVEYHGREEVSRFLFELFEEFGIDHLHVRHYDVFDGVFHAHFRVHVGEKERELEVEFHVVDGRITVDTVKFH” here?
A: 1.5

Q: With “SEEEHHAKKIAEDFLRWFITGDEDVLSHYADPDVRSRIGDKHHHGREELRRVMERLVRELRIKEIRIERYEVQGEKAILDSRVRGDVNGVEVEVRQIVIVVVIDGRLKSMELRLG” as the sequence, how does the protease stability score read?
A: 0.516

Q: Which protease stability score does the source give for “SEDEEFAKRFFEILVHYHKTGDWEKRMKMADPNTRSDINGVHFHGREDIYRFEDELWREMGIDHVEFHVRDSDIQGDKLHLHTQVIIHVGNKHIELDERMILLKFNGQWVLESLEVK” here?
A: 1.32

Q: With “DDIEEILRRMTELFWRALATGDEREERELADPHVRLDVNGRTYHGMEKVREWYRRIDHHHFETWHYHHIEFQGEKVYIEGRMRVNLDINGQELRIDTFTIILMLVINGRIHRFQYQVH” as the sequence, how does the protease stability score read?
A: 0.467

Q: For “SEEEEHLLKWFEELITLLLTGDEDRLSELMDPNVRIEIGDKTLVGMEWANHDYTRKIRERGWRIEIIIRELRAQGDKVRARTELRIRFDGREITYETEMILVVVNGRFKRIETRVH”, which protease stability score is on record?
A: 1.46

Q: With “SEDEEIAHHVVNLIMKIIRTGDEDNFKQLFDPHTRFTVGDKHHIGRETVIEFFRRWEEFYPNIQLELRLRDVKAYGDKVHVETEVIIRVGDKDLRFETTVYILKYNGRWFLKQEQFR” as the sequence, how does the protease stability score read?
A: 0.769

Q: Which protease stability score does the source give for “SELEELMHKFAKLFIHLWETGNEELLTKMADPNTRLIINGREVIGMERLLEVFHYIKTEIRLDTMRLEHIDWQGNKAHSHTRLHGEFNGRRHEDESEIHIRVIDGRVHTFEIRFK” here?
A: 1.2

Q: For “DELHELVKRYWDRWIESMLTGDFDANHELVDPHARVDIGDKRFHGRELYELHYKRIDHFHIHEINIRHIEVVDGRVHIDVIMHTFEIVNGVKFSHHFRQIIIIEKVDGRWVVRRIIVK”, which protease stability score is on record?
A: 1.01

Q: Which protease stability score does the source give for “DREHDELRKTWEIYSQALSTGDEDELNKLADPNTRLDIDGKELHGMEDVHRHLHHNLRRVDHIELRIHEIRYQGDFAHVDGEVIIVYDGVKKSRRVHLILTKINGRWILTSVEFR” here?
A: 1.28

Q: With “REQEHEAKVAVDEWREDMETGDEHRLRELMDPDVRNIVGDKELHGREAVEFLITQIDHVKHIHVRHLDIQGDYIRFEGEINIHVNGRDRTLDVELYFIKINGRWHIHKLRFD” as the sequence, how does the protease stability score read?
A: 1.66

Q: For “SDEQRDVKFMLDQWLRSIETGNEDEIRHLVDPNVRSDINGQTHHGRDEYVRHMVEIRVILESIELHDLRWQGDKIDVDAIVQGTIIVNGRKTRFIERVHLHSVKVNGRWEIKEYRVV”, which protease stability score is on record?
A: 1.42

Q: With “DEVEHHMKTITDRLLTAIETGDEDEWERLLDPRVRVDIGDKHIHGREDYNRKFRERGFEIKRWEMKDMDVINGQIRIDGHRKIHIDGVTTRNTVHIIIVVYNGRVKHFEHRHE” as the sequence, how does the protease stability score read?
A: 0.578

Q: For “TKEEELAHRALHEWINDINTGNEEEFKELVDPNARMLVDGRHHHGREHVINVFIHLIRKVKNLTVDLDEIEIQGDKVTVIGILRVDGREIHITIHSRKINGRWHFEDIVWE”, which protease stability score is on record?
A: 1.6

Q: Which protease stability score does the source give for “DEEEKLDREIEKTMKETIETGDEHLLSELIDPHARLVFNGKDFHGMEEATRFWYELVTRFKNLTFVPKDVKVFDGRLIMHGINLVNGVERRLTIVVEKINGRWVIRSIHIK” here?
A: 1

Q: With “SEREEDTEHHMRMLIKDHETGDWRSWKKLVDPHVKLEINGREHHGRELALHMFRRVDHIESTVRDRTIQGDKVHHDGHLIINVDGVNIIVRSEIILIKVDGQWRIEILIFR” as the sequence, how does the protease stability score read?
A: 0.957

Q: For “DDTLRDLFHLIELFHKALKTGDEQKMRENLDPHAKFDWDGRDYVGMEEVVKYVVEARIESTFHIHSVRKIGNKLDVDGTFSLEVDYNGKKEDIHSRQHHFIYKVDGQWIIKRIIIK”, which protease stability score is on record?
A: 0.537

Q: For “DEDLRMAFEMVRISDHEIDTGDEDSWTKLFDPHVRIRFPGRMLHGREYLHYVLKHARIHYDDSELKDVKFVGNKLLVDVHVRGTFFIDGQNIHTEVKRIHMIEKYNGKWKTTEMEIK”, which protease stability score is on record?
A: 0.469

Q: Which protease stability score does the source give for “DEEKEKAKEFLHEWFRSLETGDEDLLTKLLDPNARMDINGQRFVGRHDIQRFISELREKIPNMQIDFHDQEMTDVNGVVQVDMRVDIHYGDKSSHHRLHVYVLKINGRWINKHIHVRTK” here?
A: 1.16

Q: With “SEEENILEEMLKIFYESSRTGNEKTMQELFDPHARIEFEGVENIGMELAMRLTTHWRLQTVHIKDVRVIDGQIHMDGEERGVINGQEIRTEVDIISIKIDGRWLFHSKQIN” as the sequence, how does the protease stability score read?
A: 0.369

Q: Which protease stability score does the source give for “SDDHEEAKEALRLWVEDLLTGDEDRLRELVDPNARIEIIVNGRTIEYHGRDRVNKWTSFVLLRLGVKHSHVHEIRLIDGRVHNDLRIHQGDKDQILHLSFEKINGKWTLREVKISVV” here?
A: 1.39

Q: With “DEREELAEHMIRLLTERLITGDERIEQELADPNVRFELDINGKSVDTHGMENVLEWIRKWYEHFGVTNFDLRIHRIRVIGEYAHNDGEIIQGDKTRRVHIRMVVINGRVHEVIIHVR” as the sequence, how does the protease stability score read?
A: 1.22

Q: Which protease stability score does the source give for “DEERELTEKLTRKLIHNWLTGDPEAIRRMLDPNVRVIINGQELHGRERFHEHMHHLLRHMRIDHIDIKDWKFQGEKFHIDLHVHGTIDGVHFIHRTESSVIIVNGKIHQMHVHEI” here?
A: 1.41

Q: For “DEDKKLAHESFRIWLHWMRTGDEKMMEELMDPNTRTYFEGHSDHGRSAARQYANRIDHIHHIHVHHIEIQGDKVEVDGRLDGVVNGKRIDVRIVIESVKVNGKWIVRSIEEH”, which protease stability score is on record?
A: 1.41

Q: For “TEHEEMIREALEFLIRLLETGDFERLHHLADPNVRLEQGDKEFIGREEWLRLFTEEIRQYKGITIHIHEVEVVDGRVYINGTVHQGDKIRRVIWVIIKIDGKWRIHSVHIR”, which protease stability score is on record?
A: 2.19
